The values that follow come from PMC7138820, “Acetylation of histone H3K27 signals the transcriptional elongation for estrogen receptor alpha” (Communications Biology, 2020).

This series deals with the molecule itself. Description: crystal structure; AFF4 900–1163, sitting-drop vapor diffusion at 16 °C, 2.2 M NaH2PO4, 0.4 M K2HPO4, 0.1 M MES pH 6.6; SAD phasing; 2.2 Å.

B1: AFF4 fragment encompassing residues 900–1163 (crystallised) (domain or fragment, human, UniProt Q9UHB7 900-1163, looked up)
chain: KPRRTKLVFDDRNYSADHYLQEAKKLKHNADALSDRFEKAVYYLDAVVSFIECGNALEKNAQESKSPFPMYSETVDLIKYTMKLKNYLAPDATAADKRLTVLCLRCESLLYLRLFKLKKENALKYSKTLTEHLKNSYNNSQAPSPGLGSKAVGMPSPVSPKLSPGNSGNYSSGASSASASGSSVTIPQKIHQMAASYVQVTSNFLYATEIWDQAEQLSKEQKEFFAELDKVMGPLIFNASIMTDLVRYTRQGLHWLRQDAKLIS
notes: A selenomethionyl derivative was made for SAD phasing; also called AFF4 C-terminal dimerization domain; AFF4 homodimerization domain; source: E. coli BL21(DE3) codon-plus RIL, purified (Ni-chelating resin, HiTrap SP, Superdex 75); not shown: His, N-terminal, cleaved; SUMO, N-terminal, cleaved
Consider B1, for which the binding result is recorded as “binds”.
